{"source": "patent US9969998B2", "about": "“Compositions of adenosine deaminase-2 (ADA2), variants thereof and methods of using same” (Halozyme, Inc., priority 2014, dated 2018)", "molecules": {"B1": {"name": "K374D: ADA2 variant SEQ ID NO:20 (protein)", "chain": "IDETRAHLLLKEKMMRLGGRLVLNTKEELANERLMTLKIAEMKEAMRTLIFPPSMHFFQAKHLIERSQVFNILRMMPKGAALHLHDIGIVTMDWLVRNVTYRPHCHICFTPRGIMQFRFAHPTPRPSEKCSKWILLEDYRKRVQNVTEFDDSLLRNFTLVTQHPEVIYTNQNVVWSKFETIFFTISGLIHYAPVFRDYVFRSMQEFYEDNVLYMEIRARLLPVYELSGEHHDEEWSVKTYQEVAQKFVETHPEFIGIKIIYSDHRSKDVAVIAESIRMAMGLRIKFPTVVAGFDLVGHEDTGHSLHDYKEALMIPAKDGVKLPYFFHAGETDWQGTSIDRNILDALMLNTTRIGHGFALSKHPAVRTYSWDKDIPIEVCPISNQVLKLVSDLRNHPVATLMATGHPMVISSDDPAMFGAKGLSYDFYEVFMGIGGMKADLRTLKQLAMNSIKYSTLLESEKNTFMEIWKKRWDKFIADVATK", "modifications": "human ADA2 K371D, mature numbering"}, "B2": {"name": "PEG-K374D: rHuADA2-K374D (SEQ ID NO:20) PEGylated on surface exposed lysines with linear PEG-20K (conjugate)", "chain": "B1 chain", "modifications": "linear PEG-20K on surface lysines; human ADA2 K371D, mature numbering"}}, "key": {"[1]": {"assay": "Spectrophotometric adenosine deaminase assay at varying pH (pH optimum)", "type": "biochemical"}, "[2]": {"conditions": "mouse, in vivo, iv, 7.5 mg/kg", "description": "Fifty four (54) male BALB/c mice were divided into six (6) dosing groups, and were further divided into three (3) groups each for sampling of blood at different time points. Thus, the mice were randomized into eighteen (18) groups total. Mice were weighed prior to the start of the study, and randomized into the 18 groups based upon their body weights. In each sampling group, three groups of (3) mice were used for dosing each test article to prevent oversampling of the blood from the animals. For measurement of baseline ADA2 levels, a blood sample was obtained from 12 randomly chosen mice and plasma was prepared using the anti-coagulant potassium (K3) ethylene diamine tetraacetic acid (K3-EDTA). All blood was collected by submandibular venipuncture.\nEach mouse was injected by intravenous tail-vein injection with a 7.5 mg/kg dose of one of six ADA2 test article as set forth in Table 24, i.e. rHuADA2-K374D (K371D by mature numbering), PEG-rHuADA2-K374D (PEG-K371D by mature numbering), rHuADA2-R23E (R20E by mature numbering), PEG-rHuADA2-R23E (PEG-R20E by mature numbering), or WT ADA2 and PEG-WT ADA2.\nBlood was collected at designated sampling time points from appropriate groups of mice as indicated below in Table 24 and kept on ice until plasma preparation. Plasma was prepared by centrifuging the blood (500×g for 5 min at 4° C.), transferring the plasma to a fresh tube and immediately freezing at −80° C. until the adenosine deaminase activity assay. Adenosine deaminase activity was determined as described in Example 4. The half-life, or time taken for the activity of ADA2 proteins to be reduced by half, was calculated. Also, total exposure was measured by calculating the Area Under the Concentration-time Curve (AUC)."}, "[3]": {"assay": "Kinetic assessment of adenosine deaminase activity (ammonia assay, Michaelis-Menten)", "type": "biochemical", "conditions": "for Km / Vmax / kcat: [E] = 8.5 nM; for kcat: kcat=Vmax/0.0085/60", "outline": "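Coupled ammonia assay: rHuADA2 WT or variants (1 μg/mL, 17 nM in 2× mix) with adenosine 20 μM–20 mM, α-ketoglutarate, NADPH and GDH, at pH 7.6 or pH 6.5 (PIPES), room temperature. Michaelis-Menten fit gave Km, Vmax, kcat, kcat/Km.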"}, "[4]": {"assay": "Heparin binding capture ELISA (biotin-heparin on streptavidin plate)", "conditions": "PEGylated and non-PEGylated forms (Table 22)"}}, "data": [{"molecule": "B1", "values": [{"measurement": "Adenosine deaminase activity Δ [ADO]/min × (−100)", "setting": "[1]; pH 5.5", "value": 12.19}, {"measurement": "Adenosine deaminase activity Δ [ADO]/min × (−100)", "setting": "[1]; pH 6", "value": 10.68}, {"measurement": "Adenosine deaminase activity Δ [ADO]/min × (−100)", "setting": "[1]; pH 6.5", "value": 14.22}, {"measurement": "Adenosine deaminase activity Δ [ADO]/min × (−100)", "setting": "[1]; pH 6.75", "value": 12.90}, {"measurement": "Adenosine deaminase activity Δ [ADO]/min × (−100)", "setting": "[1]; pH 7", "value": 13.22}, {"measurement": "Adenosine deaminase activity Δ [ADO]/min × (−100)", "setting": "[1]; pH 7.25", "value": 12.86}, {"measurement": "Adenosine deaminase activity Δ [ADO]/min × (−100)", "setting": "[1]; pH 7.4", "value": 10.55}, {"measurement": "Adenosine deaminase activity Δ [ADO]/min × (−100)", "setting": "[1]; pH 7.75", "value": 1.55}, {"measurement": "Adenosine deaminase activity Δ [ADO]/min × (−100)", "setting": "[1]; pH 8", "value": 3.46}, {"measurement": "AUC (mU * h)/mL", "setting": "[2]", "value": "74,983 (mU * h)/mL"}, {"measurement": "Half life slow (t1/2)", "setting": "[2]", "value": 3.8, "unit": "h"}, {"measurement": "Percent increase in AUC compared to WT ADA2", "setting": "[2]", "value": 128, "unit": "%"}, {"measurement": "Percent increase in t1/2 compared to WT ADA2", "setting": "[2]", "value": 230, "unit": "%"}, {"measurement": "Km", "setting": "[3]; pH 6.5", "value": 3.16, "unit": "mM"}, {"measurement": "Vmax", "setting": "[3]; pH 6.5", "value": 42.98, "unit": "µM/min"}, {"measurement": "kcat", "setting": "[3]; pH 6.5", "value": 84.27, "unit": "s⁻¹"}, {"measurement": "Km", "setting": "[3]; pH 7.6", "value": 4.88, "unit": "mM"}, {"measurement": "Vmax", "setting": "[3]; pH 7.6", "value": 28.25, "unit": "µM/min"}, {"measurement": "kcat", "setting": "[3]; pH 7.6", "value": 55.39, "unit": "s⁻¹"}, {"measurement": "kinetics properties compared to WT", "setting": "[3]; pH 7.6 and pH 6.5", "value": "improved kinetics properties compared to WT"}, {"measurement": "Average OD450, heparin binding capture ELISA", "setting": "[4]", "value": 0.87}]}, {"molecule": "B2", "values": [{"measurement": "AUC (mU * h)/mL", "setting": "[2]", "value": "2,725,000 (mU * h)/mL"}, {"measurement": "Half life slow (t1/2)", "setting": "[2]", "value": 21.75, "unit": "h"}, {"measurement": "Percent increase in AUC compared to WT ADA2", "setting": "[2]", "value": 8187, "unit": "%"}, {"measurement": "Percent increase in t1/2 compared to WT ADA2", "setting": "[2]", "value": 1791, "unit": "%"}, {"measurement": "Average OD450, heparin binding capture ELISA", "setting": "[4]", "value": 0.15}]}]}
